Measurements from patent US20180292409A1 (REGENTS OF THE UNIVERSITY OF MINNESOTA, published 2018).

Target: T1, progesterone receptor (PR) (human, UniProt P06401 1-933, limits assumed)
T1 construct: also called total PR; PR-A
T1 sequence (looked up): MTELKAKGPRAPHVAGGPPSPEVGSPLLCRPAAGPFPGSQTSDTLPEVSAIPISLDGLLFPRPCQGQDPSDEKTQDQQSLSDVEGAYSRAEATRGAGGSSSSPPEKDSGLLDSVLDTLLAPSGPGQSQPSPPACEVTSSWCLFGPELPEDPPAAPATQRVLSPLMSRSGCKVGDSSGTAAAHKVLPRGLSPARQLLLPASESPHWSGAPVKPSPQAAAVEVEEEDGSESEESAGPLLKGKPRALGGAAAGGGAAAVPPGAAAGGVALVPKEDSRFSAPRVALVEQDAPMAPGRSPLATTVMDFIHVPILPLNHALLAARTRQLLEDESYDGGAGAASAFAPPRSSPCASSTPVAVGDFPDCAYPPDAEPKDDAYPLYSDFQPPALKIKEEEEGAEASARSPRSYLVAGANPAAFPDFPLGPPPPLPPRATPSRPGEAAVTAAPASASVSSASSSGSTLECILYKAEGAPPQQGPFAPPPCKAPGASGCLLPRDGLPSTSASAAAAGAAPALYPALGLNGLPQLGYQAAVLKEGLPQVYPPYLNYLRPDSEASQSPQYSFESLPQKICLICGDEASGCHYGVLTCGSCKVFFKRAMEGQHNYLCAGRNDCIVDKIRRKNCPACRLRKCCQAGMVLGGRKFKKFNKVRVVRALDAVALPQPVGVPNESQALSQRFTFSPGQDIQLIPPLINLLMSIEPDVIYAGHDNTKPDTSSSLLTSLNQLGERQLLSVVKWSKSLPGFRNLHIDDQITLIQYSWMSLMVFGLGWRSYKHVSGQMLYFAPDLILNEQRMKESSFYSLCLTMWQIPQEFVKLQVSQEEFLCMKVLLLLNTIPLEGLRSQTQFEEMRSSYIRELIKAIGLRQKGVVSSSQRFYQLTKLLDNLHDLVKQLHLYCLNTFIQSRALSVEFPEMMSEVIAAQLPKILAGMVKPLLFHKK
Test: co-immunoprecipitation from breast cancer cell whole cell lysates

B1: RUNX2 (other, UniProt Q13950 1-521, looked up)
chain: MASNSLFSTVTPCQQNFFWDPSTSRRFSPPSSSLQPGKMSDVSPVVAAQQQQQQQQQQQQQQQQQQQQQQQEAAAAAAAAAAAAAAAAAVPRLRPPHDNRTMVEIIADHPAELVRTDSPNFLCSVLPSHWRCNKTLPVAFKVVALGEVPDGTVVTVMAGNDENYSAELRNASAVMKNQVARFNDLRFVGRSGRGKSFTLTITVFTNPPQVATYHRAIKVTVDGPREPRRHRQKLDDSKPSLFSDRLSDLGRIPHPSMRVGVPPQNPRPSLNSAPSPFNPQGQSQITDPRQAQSSPPWSYDQSYPSYLSQMTSPSIHSTTPLSSTRGTGLPAITDVPRRISDDDTATSDFCLWPSTLSKKSQAGASELGPFSDPRQFPSISSLTESRFSNPRMHYPATFTYTPPVTSGMSLGMSATTHYHTYLPPPYPGSSQSQSGPFQTSSTPYLYYGTSSGSYQFPMVPGGDRSPSRMLPPCTTTSNGSTLLNPNLPNQNDGVDADGSHSSSPTVLNSSGRMDESVWRPY
notes: also called runt-related transcription factor 2
- binding result: no binding
